Measured values as given in article PMC2566891 (Nucleic Acids Research, 2008).

System: p53/DNA complex (p21 dsDNA)
Test: Electrophoretic mobility shift assay
Format: binding
Details: phosphorylated p53 8 µM, p21 DNA 4 µM, 14-3-3γ 0–20 µM; 0.8% agarose gel

B1: 14-3-3: recombinant 14-3-3 protein (γ isoform in EMSA, Figure 5A) (protein)
chain: MDDREDLVYQAKLAEQAERYDEMVESMKKVAGMDVELTVEERNLLSVAYKNVIGARRASWRIISSIEQKEENKGGEDKLKMIREYRQMVETELKLICCDILDVLDKHLIPAANTGESKVFYYKMKGDYHRYLAEFATGNDRKEAAENSLVAYKAASDIAMTELPPTHPIRLGLALNFSVFYYEILNSPDRACRLAKAAFDDAIAELDTLSEESYKDSTLIMQLLRDNLTLWTSDMQGDGEEQNKEALQDVEDENQ
- p53/DNA complex formation: enhanced the p53/DNA complex formation
